Measured values published in PMC12147176, “Unstructured protein domains stabilize RNA binding and mediate RNA folding by AUF1”.

Tests used:
[1] = target: p37AUF1 (EK-cleaved) (human, UniProt Q14103-4 1-287); test: fluorescence anisotropy; Anisotropy: 10 mM Tris-HCl pH 8.0, 100 mM KCl (50 mM for Fl-ARE2), 0.5 mM EDTA, 0.1 ug/ul acetylated BSA, 1 ug/ul heparin, 2 mM DTT, 25 C, RNA 0.2-0.4 nM; EMSA: same with 100 mM KCl, 10% glycerol, 1 nM RNA, on ice, UV crosslinked; conditions: protein: recombinant; tags: His6 removed by enterokinase; chain copies: 2; label: 3' fluorescein
Chain of p37AUF1 (EK-cleaved) (Q14103 other isoform, or with tags, fused parts or gaps): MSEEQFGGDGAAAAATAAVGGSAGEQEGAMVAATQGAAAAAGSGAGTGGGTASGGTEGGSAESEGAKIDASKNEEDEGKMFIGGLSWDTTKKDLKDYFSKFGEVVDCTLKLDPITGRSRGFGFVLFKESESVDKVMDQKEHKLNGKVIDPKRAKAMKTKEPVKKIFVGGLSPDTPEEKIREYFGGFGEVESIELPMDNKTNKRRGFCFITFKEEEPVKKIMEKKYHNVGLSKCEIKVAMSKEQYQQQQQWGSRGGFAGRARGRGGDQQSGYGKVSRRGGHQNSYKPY

[2] = target: His6-p37AUF1(69-239) (human, UniProt Q14103-4 69-239); test: as above; conditions: protein: recombinant; label: 3' fluorescein
Chain of His6-p37AUF1(69-239) (Q14103 other isoform, or with tags, fused parts or gaps): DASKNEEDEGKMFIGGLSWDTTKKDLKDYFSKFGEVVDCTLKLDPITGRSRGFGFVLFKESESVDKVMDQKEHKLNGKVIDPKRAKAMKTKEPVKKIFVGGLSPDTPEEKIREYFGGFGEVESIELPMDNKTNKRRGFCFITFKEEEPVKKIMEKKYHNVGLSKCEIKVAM

[3] = target: His6-p37AUF1(30-287) (human, UniProt Q14103-4 30-287); test: as above; conditions: protein: recombinant; chain copies: 2; label: 3' fluorescein
Chain of His6-p37AUF1(30-287) (Q14103 other isoform, or with tags, fused parts or gaps): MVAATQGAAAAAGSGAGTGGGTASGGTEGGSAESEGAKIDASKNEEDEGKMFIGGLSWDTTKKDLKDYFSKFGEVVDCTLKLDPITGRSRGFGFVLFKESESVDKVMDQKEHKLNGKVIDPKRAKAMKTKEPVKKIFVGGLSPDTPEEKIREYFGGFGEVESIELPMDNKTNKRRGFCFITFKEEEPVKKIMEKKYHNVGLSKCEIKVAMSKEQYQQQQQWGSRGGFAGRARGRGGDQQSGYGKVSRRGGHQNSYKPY

[4] = target: T1, His6-p37AUF1(78-239) (human, UniProt Q14103-4 78-239); test: as above; conditions: protein: recombinant; for Kd: label: 3' fluorescein
T1 sequence (Q14103 other isoform, or with tags, fused parts or gaps): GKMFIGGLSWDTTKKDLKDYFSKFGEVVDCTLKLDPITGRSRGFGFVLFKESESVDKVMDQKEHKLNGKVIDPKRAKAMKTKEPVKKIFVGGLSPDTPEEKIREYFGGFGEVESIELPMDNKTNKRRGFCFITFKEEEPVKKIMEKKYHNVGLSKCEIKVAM

[5] = target: T2, His6-p37AUF1(1-239) (human, UniProt Q14103-4 1-239); test: as above; conditions: protein: recombinant; chain copies: 2; label: 3' fluorescein
T2 sequence (Q14103 other isoform, or with tags, fused parts or gaps): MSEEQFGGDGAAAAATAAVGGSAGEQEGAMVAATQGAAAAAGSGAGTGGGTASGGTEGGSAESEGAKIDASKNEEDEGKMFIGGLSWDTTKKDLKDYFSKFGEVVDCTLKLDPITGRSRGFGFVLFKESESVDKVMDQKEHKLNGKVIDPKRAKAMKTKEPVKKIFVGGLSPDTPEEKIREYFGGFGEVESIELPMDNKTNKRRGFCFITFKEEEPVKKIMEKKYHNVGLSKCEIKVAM

[6] = target: His6-p37AUF1 W250F (human, UniProt Q14103-4 1-287, W250F); test: as above; conditions: protein: recombinant; tags: N-term His6; chain copies: 2; label: 3' fluorescein
Chain of His6-p37AUF1 W250F (Q14103 other isoform, or with tags, fused parts or gaps W250F | W250F W250F): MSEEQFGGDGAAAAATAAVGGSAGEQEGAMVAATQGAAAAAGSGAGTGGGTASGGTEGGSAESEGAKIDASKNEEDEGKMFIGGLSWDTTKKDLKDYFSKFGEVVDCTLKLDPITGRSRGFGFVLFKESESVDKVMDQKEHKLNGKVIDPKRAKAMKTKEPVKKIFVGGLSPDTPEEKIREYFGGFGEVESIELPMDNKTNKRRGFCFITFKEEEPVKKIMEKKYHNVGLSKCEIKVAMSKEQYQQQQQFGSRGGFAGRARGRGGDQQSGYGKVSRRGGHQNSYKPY

[7] = target: His6-p37AUF1(Δ69-77) (human, UniProt Q14103-4 1-287, del69-77); test: as above; conditions: protein: recombinant; chain copies: 2; label: 3' fluorescein
Chain of His6-p37AUF1(Δ69-77) (Q14103 other isoform, or with tags, fused parts or gaps del69-77 | mutant): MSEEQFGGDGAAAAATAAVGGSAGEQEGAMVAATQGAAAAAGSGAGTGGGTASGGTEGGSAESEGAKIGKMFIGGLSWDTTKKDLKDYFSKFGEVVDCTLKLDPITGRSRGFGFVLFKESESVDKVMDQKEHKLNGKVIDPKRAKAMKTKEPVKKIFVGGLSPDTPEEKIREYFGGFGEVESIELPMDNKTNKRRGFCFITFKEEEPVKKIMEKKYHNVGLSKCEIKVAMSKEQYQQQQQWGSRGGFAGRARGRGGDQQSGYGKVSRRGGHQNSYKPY

[8] = target: T3, His6-p37AUF1 wt (human, UniProt Q14103-4 1-287); test: as above; conditions: protein: recombinant, chain copies: 2; for Kd: label: 3' fluorescein
T3 sequence (Q14103 other isoform, or with tags, fused parts or gaps): as the sequence (Q14103 other isoform, or with tags, fused parts or gaps W250F | W250F W250F) above, with F250W counted along it

[9] = target: T1, His6-p37AUF1(78-239); test: fluorescence anisotropy; first site (Kd1), 50 mM KCl; Anisotropy: 10 mM Tris-HCl pH 8.0, 100 mM KCl (50 mM for Fl-ARE2), 0.5 mM EDTA, 0.1 ug/ul acetylated BSA, 1 ug/ul heparin, 2 mM DTT, 25 C, RNA 0.2-0.4 nM; EMSA: same with 100 mM KCl, 10% glycerol, 1 nM RNA, on ice, UV crosslinked; conditions: protein: recombinant; label: 5' fluorescein
[10] = target: T2, His6-p37AUF1(1-239); test: as above; conditions: protein: recombinant; chain copies: 2; label: 5' fluorescein
[11] = target: T3, His6-p37AUF1 wt; test: as above; conditions: protein: recombinant; chain copies: 2; label: 5' fluorescein
[12] = target: His6-p37AUF1(78-287) (human, UniProt Q14103-4 78-287); test: fluorescence anisotropy; Anisotropy: 10 mM Tris-HCl pH 8.0, 100 mM KCl (50 mM for Fl-ARE2), 0.5 mM EDTA, 0.1 ug/ul acetylated BSA, 1 ug/ul heparin, 2 mM DTT, 25 C, RNA 0.2-0.4 nM; EMSA: same with 100 mM KCl, 10% glycerol, 1 nM RNA, on ice, UV crosslinked; conditions: protein: recombinant; chain copies: 2; label: 3' fluorescein
Chain of His6-p37AUF1(78-287) (Q14103 other isoform, or with tags, fused parts or gaps): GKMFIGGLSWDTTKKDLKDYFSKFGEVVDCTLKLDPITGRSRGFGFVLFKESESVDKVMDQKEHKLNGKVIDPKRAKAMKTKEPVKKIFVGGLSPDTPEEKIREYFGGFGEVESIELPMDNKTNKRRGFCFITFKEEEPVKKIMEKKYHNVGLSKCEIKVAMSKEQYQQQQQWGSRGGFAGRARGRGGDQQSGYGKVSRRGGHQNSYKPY

[13] = target: His6-p37AUF1(69-287) (human, UniProt Q14103-4 69-287); test: as above; conditions: protein: recombinant; label: 3' fluorescein
Chain of His6-p37AUF1(69-287) (Q14103 other isoform, or with tags, fused parts or gaps): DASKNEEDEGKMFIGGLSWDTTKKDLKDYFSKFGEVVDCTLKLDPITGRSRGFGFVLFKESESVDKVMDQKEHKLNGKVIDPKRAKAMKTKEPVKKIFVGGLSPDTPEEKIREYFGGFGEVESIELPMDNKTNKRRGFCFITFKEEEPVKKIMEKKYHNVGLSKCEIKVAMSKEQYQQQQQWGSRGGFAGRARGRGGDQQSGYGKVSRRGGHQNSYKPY

[14] = target: T1, His6-p37AUF1(78-239); test: EMSA (UV-crosslinked); Anisotropy: 10 mM Tris-HCl pH 8.0, 100 mM KCl (50 mM for Fl-ARE2), 0.5 mM EDTA, 0.1 ug/ul acetylated BSA, 1 ug/ul heparin, 2 mM DTT, 25 C, RNA 0.2-0.4 nM; EMSA: same with 100 mM KCl, 10% glycerol, 1 nM RNA, on ice, UV crosslinked; conditions: protein: recombinant; label: biotin
[15] = target: T3, His6-p37AUF1 wt; test: as above; conditions: protein: recombinant; chain copies: 2; label: biotin
[16] = target: T4, His6-p37AUF1 W87F (human, UniProt Q14103-4 1-287, W87F); test: Trp fluorescence and iodide quenching; 2 uM each; KSV 0.60 vs 6.59 M-1 without RNA; saturates near 1:1; Anisotropy: 10 mM Tris-HCl pH 8.0, 100 mM KCl (50 mM for Fl-ARE2), 0.5 mM EDTA, 0.1 ug/ul acetylated BSA, 1 ug/ul heparin, 2 mM DTT, 25 C, RNA 0.2-0.4 nM; EMSA: same with 100 mM KCl, 10% glycerol, 1 nM RNA, on ice, UV crosslinked; conditions: protein: recombinant; tags: N-term His6; chain copies: 2
T4 sequence (Q14103 other isoform, or with tags, fused parts or gaps W87F | W87F W87F): as the sequence (Q14103 other isoform, or with tags, fused parts or gaps W250F | W250F W250F) above, with W87F, F250W counted along it

[17] = target: T4, His6-p37AUF1 W87F; test: Trp fluorescence and iodide quenching; 2 uM each; KSV 3.88 M-1; Anisotropy: 10 mM Tris-HCl pH 8.0, 100 mM KCl (50 mM for Fl-ARE2), 0.5 mM EDTA, 0.1 ug/ul acetylated BSA, 1 ug/ul heparin, 2 mM DTT, 25 C, RNA 0.2-0.4 nM; EMSA: same with 100 mM KCl, 10% glycerol, 1 nM RNA, on ice, UV crosslinked; conditions: protein: recombinant; tags: N-term His6; chain copies: 2

For CCCCUGGCUCACAAAUACCUUAUUUAUUUAUUUAG (ssRNA) [ARE1-Fl], the Kd [1] was 15 ± 2 nM, the Kd [2] was 527 ± 54 nM and the Kd [3] was 27 ± 1.4 nM. It also gave a Kd [4] of 505 ± 34 nM, a Kd [5] of 101 ± 8 nM and a Kd [6] of 22 ± 2 nM. The Kd [7] was 89 ± 11 nM and the Kd [8] was 19 ± 3 nM.

GUGAUUAUUUAUUAUUUAUUUAUUAUUUAUUUAUUUAG (ssRNA) [Fl-ARE2] gave a Kd [9] of 853 ± 48 nM, a Kd [10] of 156 ± 7 nM and a Kd [11] of 16 ± 3 nM.

Work on UUAUUUAUUUAUUUAG (ssRNA) [ARE15-G-Fl] yielded a Kd [2] of 933 ± 90 nM, a Kd [4] of 796 ± 103 nM and a Kd [12] of 1090 ± 69 nM. For the same binder, the Kd [5] was 176 ± 9 nM, the Kd [8] was 110 ± 5 nM and the Kd [13] was 467 ± 33 nM.

UGGCCAAUGCCCUGGCUCACAAAUACCACUG (ssRNA) [Fl-Rβ]: no binding ([4]; label: 5' fluorescein); no binding ([8]; label: 5' fluorescein).

UGGCCAAUGCCCUGGCUCACAAAUACCACUG (ssRNA) [B-Rβ]: no binding [14]; no binding [15].

CCCCUGGCUCACAAAUACCUUAUUUAUUUAUUUAG (ssRNA) [ARE1 (unlabeled)]: binds [16].

UUAUUUAUUUAUUUAG (ssRNA) [ARE15-G (unlabeled)]: binds [17].
